Measured values published in paper PMC11189300, “Structure of the human KMN complex and implications for regulation of its assembly” (Nature Structural & Molecular Biology, 2024).

B5: Mis12 complex (Mis12C), full length: MIS12, PMF1, NSL1, DSN1 (complex, human)
chain 1: MSVDPMTYEAQFFGFTPQTCMLRIYIAFQDYLFEVMQAVEQVILKKLDGIPDCDISPVQIRKCTEKFLCFMKGHFDNLFSKMEQLFLQLILRIPSNILLPEDKCKETPYSEEDFQHLQKEIEQLQEKYKTELCTKQALLAELEEQKIVQAKLKQTLTFFDELHNVGRDHGTSDFRESLVSLVQNSRKLQNIRDNVEKESKRLKIS
chain 2: MAEASSANLGSGCEEKRHEGSSSESVPPGTTISRVKLLDTMVDTFLQKLVAAGSYQRFTDCYKCFYQLQPAMTQQIYDKFIAQLQTSIREEISDIKEEGNLEAVLNALDKIVEEGKVRKEPAWRPSGIPEKDLHSVMAPYFLQQRDTLRRHVQKQEAENQQLADAVLAGRRQVEELQLQVQAQQQAWQALHREQRELVAVLREPE
chain 3: MAGSPELVVLDPPWDKELAAGTESQALVSATPREDFRVRCTSKRAVTEMLQLCGRFVQKLGDALPEEIREPALRDAQWTFESAVQENISINGQAWQEASDNCFMDSDIKVLEDQFDEIIVDIATKRKQYPRKILECVIKTIKAKQEILKQYHPVVHPLDLKYDPDPAPHMENLKCRGETVAKEISEAMKSLPALIEQGEGFSQVLRMQPVIHLQRIHQEVFSSCHRKPDAKPENFITQIETTPTETASRKTSDMVLKRKQTKDCPQRKWYPLRPKKINLDT
chain 4: MTSVTRSEIIDEKGPVMSKTHDHQLESSLSPVEVFAKTSASLEMNQGVSEERIHLGSSPKKGGNCDLSHQERLQSKSLHLSPQEQSASYQDRRQSWRRASMKETNRRKSLHPIHQGITELSRSISVDLAESKRLGCLLLSSFQFSIQKLEPFLRDTKGFSLESFRAKASSLSEELKHFADGLETDGTLQKCFEDSNGKASDFSLEASVAEMKEYITKFSLERQTWDQLLLHYQQEAKEILSRGSTEAKITEVKVEPMTYLGSSQNEVLNTKPDYQKILQNQSKVFDCMELVMDELQGSVKQLQAFMDESTQCFQKVSVQLGKRSMQQLDPSPARKLLKLQLQNPPAIHGSGSGSCQ
notes: MIS12, human, subunit of the Mis12 complex; PMF1, human, subunit of the Mis12 complex; NSL1, human, subunit of the Mis12 complex; DSN1, human, subunit of the Mis12 complex (DSN1^SORT-HIS); In BLI one partner was biotinylated by sortase (GGGG-biotin peptide); also called Mis12C^WT; wild-type Mis12C; source: Tnao38 insect cells (baculovirus from pBIG1A), purified (Talon, SEC); copies: + + +

Experiments:
Details in all cases: both partners purified
[1] = target: T1, DSN1 (subunit of Mis12C in the KMN structure) (human, UniProt Q9H410 1-356); assay: cryo-EM structure; eight-subunit KMN (full-length Mis12C, SPC24 109–197/SPC25 92–224, ZWINT, KNL1 2,021–2,342), 0.3 mg/ml with 0.003% Triton; reconstruction at 4.5 Å; model fitted from known structures and AF2 predictions and refined against the map
T1 construct: DSN1, human; also called DSN1^SORT-HIS; source: Tnao38 insect cells (baculovirus), co-expressed in Mis12C, purified (Talon, SEC)
T1 sequence (looked up): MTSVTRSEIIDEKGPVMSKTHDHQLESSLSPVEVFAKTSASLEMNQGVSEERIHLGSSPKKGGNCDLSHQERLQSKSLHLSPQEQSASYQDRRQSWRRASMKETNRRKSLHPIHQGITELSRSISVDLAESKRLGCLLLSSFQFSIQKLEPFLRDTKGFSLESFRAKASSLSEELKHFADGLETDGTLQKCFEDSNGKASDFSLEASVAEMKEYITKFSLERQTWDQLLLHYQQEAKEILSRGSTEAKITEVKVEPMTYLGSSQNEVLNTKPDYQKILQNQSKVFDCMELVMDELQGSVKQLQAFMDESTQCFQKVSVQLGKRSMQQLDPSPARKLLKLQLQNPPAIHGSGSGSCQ

[2] = target: B5; assay: as above
[3] = target: B5; assay: ITC; PEAQ-ITC; 50 mM HEPES pH 8.0, 150 mM NaCl, 1 mM TCEP; 19 injections; one-site binding fit
[4] = target: T2, Ndc80 complex (Ndc80C): NDC80^HEC1, NUF2, SPC24, SPC25 (human, UniProt O14777 1-642; Q9BZD4 1-464; Q8NBT2 1-197; Q9HBM1 1-224); assay: BLI; Octet SA biosensors loaded with the biotinylated ligand, analyte at different concentrations; 25 °C; 50 mM HEPES pH 8.0, 150 mM NaCl, 2 mM TCEP, 0.05% Tween-20; which partner was loaded is not given
T2 construct: NDC80 (HEC1), human; NUF2, human; SPC24, human; SPC25, human; also called complete Ndc80C; copies: + + +
T2 sequence (O14777 whole entry, chain 1 of 2): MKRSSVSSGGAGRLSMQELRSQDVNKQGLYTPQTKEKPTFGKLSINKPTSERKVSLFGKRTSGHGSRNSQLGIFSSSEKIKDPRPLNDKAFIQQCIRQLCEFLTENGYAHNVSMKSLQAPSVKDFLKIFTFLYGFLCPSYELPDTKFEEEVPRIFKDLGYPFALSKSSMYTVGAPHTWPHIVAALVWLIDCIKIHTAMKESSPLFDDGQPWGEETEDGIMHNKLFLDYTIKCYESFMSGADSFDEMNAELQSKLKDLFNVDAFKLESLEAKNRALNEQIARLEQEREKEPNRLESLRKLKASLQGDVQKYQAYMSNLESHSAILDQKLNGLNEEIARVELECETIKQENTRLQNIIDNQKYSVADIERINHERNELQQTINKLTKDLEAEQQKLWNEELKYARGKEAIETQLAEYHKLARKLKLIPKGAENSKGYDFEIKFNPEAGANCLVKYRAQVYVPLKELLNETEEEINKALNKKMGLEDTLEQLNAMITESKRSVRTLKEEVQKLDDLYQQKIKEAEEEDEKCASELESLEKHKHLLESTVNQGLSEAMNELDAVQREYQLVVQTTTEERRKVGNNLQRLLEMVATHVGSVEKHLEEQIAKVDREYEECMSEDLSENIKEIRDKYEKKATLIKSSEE
T2 sequence (Q9BZD4 whole entry, chain 2 of 2): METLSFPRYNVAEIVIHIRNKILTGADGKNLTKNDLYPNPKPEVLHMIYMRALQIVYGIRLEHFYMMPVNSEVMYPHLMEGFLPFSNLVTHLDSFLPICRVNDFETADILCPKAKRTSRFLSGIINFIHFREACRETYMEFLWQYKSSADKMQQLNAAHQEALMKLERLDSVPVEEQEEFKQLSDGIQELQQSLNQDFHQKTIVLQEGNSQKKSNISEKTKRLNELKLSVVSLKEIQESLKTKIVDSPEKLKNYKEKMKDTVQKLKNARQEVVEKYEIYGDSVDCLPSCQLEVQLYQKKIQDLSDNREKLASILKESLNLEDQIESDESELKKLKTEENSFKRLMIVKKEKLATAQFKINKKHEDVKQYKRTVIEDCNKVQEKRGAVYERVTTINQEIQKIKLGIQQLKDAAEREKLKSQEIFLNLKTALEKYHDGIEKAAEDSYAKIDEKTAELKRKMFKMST

B1: SPC25_(92–224) (domain or fragment, human, UniProt Q9HBM1 92-224, looked up)
chain: KKQELEVLTANIQDLKEEYSRKKETISTANKANAERLKRLQKSADLYKDRLGLEIRKIYGEKLQFIFTNIDPKNPESPFMFSLHLNEARDYEVSDSAPHLEGLAEFQENVRKTNNFSAFLANVRKAFTATVYN
notes: SPC25, human, residues 92–224 (RWD domain); source: E. coli BL21(DE3)-codon-plus-RIPL, co-purified with SPC24 (glutathione-agarose, 3C protease, SEC)
Question: Does B1 bind [1]?
Answer: binds

B2: KNL1 residues 2,021–2,342 (domain or fragment, human, UniProt Q8NG31 2021-2342, looked up)
chain: GKLVQSAQNEREKLQIKIDEMDKILKKIDNCLTEMETETKNLEDEEKNNPVEEWDSEMRAAEKELEQLKTEEEELQRNLLELEVQKEQTLAQIDFMQKQRNRTEELLDQLSLSEWDVVEWSDDQAVFTFVYDTIQLTITFEESVVGFPFLDKRYRKIVDVNFQSLLDEDQAPPSSLLVHKLIFQYVEEKESWKKTCTTQHQLPKMLEEFSLVVHHCRLLGEEIEYLKRWGPNYNLMNIDINNNELRLLFSSSAAFAKFEITLFLSAYYPSVPLPSTIQNHVGNTSQDDIATILSKVPLENNYLKNVVKQIYQDLFQDCHFYH
notes: KNL1 (CASC5), human, C-terminal region, residues 2,021–2,342; numbering of isoform 1 of the CASC5 gene; also called KNL1_(2,021–2,342); Knl1_(2,021–2,342); source: E. coli BL21(DE3)-Codon-plus-RIPL, purified (glutathione-agarose, TEV cleavage, SEC)
Question: Which results are given for B2?
Answer: binding result [1]: binds; binding result [2]: binds

B3: SPC24/SPC25^L154A-L176A (complex, human)
chain 1: MAAFRDIEEVSQGLLSLLGANRAEAQQRRLLGRHEQVVERLLETQDGAEKQLREILTMEKEVAQSLLNAKEQVHQGGVELQQLEAGLQEAGEEDTRLKASLLQLTRELEELKEIEADLERQEKEVDEDTTVTIPSAVYVAQLYHQVSKIEWDYECEPGMVKGIHHGPSVAQPIHLDSTQLSRKFISDYLWSLVDTEW
chain 2: MVEDELALFDKSINEFWNKFKSTDTSCQMAGLRDTYKDSIKAFAEKLSVKLKEEERMVEMFLEYQNQISRQNKLIQEKKDNLLKLIAEVKGKKQELEVLTANIQDLKEEYSRKKETISTANKANAERLKRLQKSADLYKDRLGLEIRKIYGEKAQFIFTNIDPKNPESPFMFSLHANEARDYEVSDSAPHLEGLAEFQENVRKTNNFSAFLANVRKAFTATVYN
notes: SPC24, human; SPC25, human, L154A and L176A; limits not restated, likely full length; GST cleaved off with 3C protease; also called SPC^M2; source: E. coli BL21(DE3)-codon-plus-RIPL, purified (glutathione-agarose, 3C protease, SEC)
Question: How did the “fold reduction of binding affinity against the wild-type pair” value [3] turn out when B3 was run?
Answer: ~27 fold

B4: SPC24^Y138A/SPC25 (complex, human)
chain 1: MAAFRDIEEVSQGLLSLLGANRAEAQQRRLLGRHEQVVERLLETQDGAEKQLREILTMEKEVAQSLLNAKEQVHQGGVELQQLEAGLQEAGEEDTRLKASLLQLTRELEELKEIEADLERQEKEVDEDTTVTIPSAVAVAQLYHQVSKIEWDYECEPGMVKGIHHGPSVAQPIHLDSTQLSRKFISDYLWSLVDTEW
chain 2: MVEDELALFDKSINEFWNKFKSTDTSCQMAGLRDTYKDSIKAFAEKLSVKLKEEERMVEMFLEYQNQISRQNKLIQEKKDNLLKLIAEVKGKKQELEVLTANIQDLKEEYSRKKETISTANKANAERLKRLQKSADLYKDRLGLEIRKIYGEKLQFIFTNIDPKNPESPFMFSLHLNEARDYEVSDSAPHLEGLAEFQENVRKTNNFSAFLANVRKAFTATVYN
notes: SPC24, human, Y138A; SPC25, human; limits not restated, likely full length; GST cleaved off with 3C protease; also called SPC^M1; source: E. coli BL21(DE3)-codon-plus-RIPL, purified (glutathione-agarose, 3C protease, SEC)
Question: B4 was tested. Which “fold reduction of binding affinity against the wild-type pair” value [3] did it give?
Answer: ~5 fold

Question: How did the Kd [4] turn out when B5 was run?
Answer: ~6 nM

B6: Mis12C with KNL1_(2,026–2,342) bound (complex, human)
chain 1: MSVDPMTYEAQFFGFTPQTCMLRIYIAFQDYLFEVMQAVEQVILKKLDGIPDCDISPVQIRKCTEKFLCFMKGHFDNLFSKMEQLFLQLILRIPSNILLPEDKCKETPYSEEDFQHLQKEIEQLQEKYKTELCTKQALLAELEEQKIVQAKLKQTLTFFDELHNVGRDHGTSDFRESLVSLVQNSRKLQNIRDNVEKESKRLKIS
chain 2: MAEASSANLGSGCEEKRHEGSSSESVPPGTTISRVKLLDTMVDTFLQKLVAAGSYQRFTDCYKCFYQLQPAMTQQIYDKFIAQLQTSIREEISDIKEEGNLEAVLNALDKIVEEGKVRKEPAWRPSGIPEKDLHSVMAPYFLQQRDTLRRHVQKQEAENQQLADAVLAGRRQVEELQLQVQAQQQAWQALHREQRELVAVLREPE
chain 3: MAGSPELVVLDPPWDKELAAGTESQALVSATPREDFRVRCTSKRAVTEMLQLCGRFVQKLGDALPEEIREPALRDAQWTFESAVQENISINGQAWQEASDNCFMDSDIKVLEDQFDEIIVDIATKRKQYPRKILECVIKTIKAKQEILKQYHPVVHPLDLKYDPDPAPHMENLKCRGETVAKEISEAMKSLPALIEQGEGFSQVLRMQPVIHLQRIHQEVFSSCHRKPDAKPENFITQIETTPTETASRKTSDMVLKRKQTKDCPQRKWYPLRPKKINLDT
chain 4: MTSVTRSEIIDEKGPVMSKTHDHQLESSLSPVEVFAKTSASLEMNQGVSEERIHLGSSPKKGGNCDLSHQERLQSKSLHLSPQEQSASYQDRRQSWRRASMKETNRRKSLHPIHQGITELSRSISVDLAESKRLGCLLLSSFQFSIQKLEPFLRDTKGFSLESFRAKASSLSEELKHFADGLETDGTLQKCFEDSNGKASDFSLEASVAEMKEYITKFSLERQTWDQLLLHYQQEAKEILSRGSTEAKITEVKVEPMTYLGSSQNEVLNTKPDYQKILQNQSKVFDCMELVMDELQGSVKQLQAFMDESTQCFQKVSVQLGKRSMQQLDPSPARKLLKLQLQNPPAIHGSGSGSCQ
chain 5: SAQNEREKLQIKIDEMDKILKKIDNCLTEMETETKNLEDEEKNNPVEEWDSEMRAAEKELEQLKTEEEELQRNLLELEVQKEQTLAQIDFMQKQRNRTEELLDQLSLSEWDVVEWSDDQAVFTFVYDTIQLTITFEESVVGFPFLDKRYRKIVDVNFQSLLDEDQAPPSSLLVHKLIFQYVEEKESWKKTCTTQHQLPKMLEEFSLVVHHCRLLGEEIEYLKRWGPNYNLMNIDINNNELRLLFSSSAAFAKFEITLFLSAYYPSVPLPSTIQNHVGNTSQDDIATILSKVPLENNYLKNVVKQIYQDLFQDCHFYH
notes: MIS12, human; PMF1, human; NSL1, human; DSN1, human; numbering of isoform 1 of the CASC5 gene; also called Mis12C + KNL1; source: Mis12C: Tnao38 insect cells, purified; KNL1: E. coli BL21(DE3)-Codon-plus-RIPL, purified; copies: + + + +
Question: For B6, which Kd [4] is on record?
Answer: ~1 nM
